The record followed here is PMC9917425 (2023).

First the molecules themselves.
B1: α-dystroglycan (α-DG) (protein)
chain: HWPSEPSEAVRDWKNQLEASMHSVLSDFQEAVPTVVGIPDGTAVVGRSFRVSIPTDLIASSGEIIKVSAAGKEALPSWLHWDPHSHILEGLPLDTDKGVHYISVSAARLGANGSHVPQTSSVFSIEVYPEDHNEPQSVRAASSDPGEVVPSACAADEPVTVLMVILDADLTKMTPKQRIDLLNRMQSFSEVELHNMKLVPVVNNRLFDMSAFMAGPGNAKKVVENGALLSWKLGCSLNQNSVPDIRGVETPAREGAMSAQLGYPVVGWHIANKKPTLPKRLRRQIHATPTPVTAIGPPTTAIQEPPSRIVPTPTSPAIAPPTETMAPPVRDPVPGKPTVTIRTRGAIIQTPTLGPIQPTRVSEAGTTVPGQIRPTLTIPGYVEPTAVITPPTTTTKKPRVSTPKPATPSTDSSTTTTRRPTKKPRTPRPVPRVTTKAPITRLETASPPTRIRTTTSGVPRGGEPNQRPELKNHIDRVDAWVGTYFEVKIPSDTFYDNEDTTTDKLKLTLKLREQQLVGEKSWVQFNSNSQLMYGLPDSSHVGKHEYFMHATDKGGLSAVDAFEIHVHKRPQGDKAPARFKARLAGDPAPVVNDIHKKIALVKKLAFAFGDRNCSSITLQNITRG
B2: α-dystroglycan (α-DG) (protein)
chain: HWPSEPSEAVRDWKNQLEASMHSVLSDFQEAVPTVVGIPDGTAVVGRSFRVSIPTDLIASSGEIIKVSAAGKEALPSWLHWDPHSHILEGLPLDTDKGVHYISVSAARLGANGSHVPQTSSVFSIEVYPEDHNEPQSVRAASSDPGEVVPSACAADEPVTVLTVILDADLTKMTPKQRIDLLNRMQSFSEVELHNMKLVPVVNNRLFDMSAFMAGPGNAKKVVENGALLSWKLGCSLNQNSVPDIRGVETPAREGAMSAQLGYPVVGWHIANKKPTLPKRLRRQIHATPTPVTAIGPPTTAIQEPPSRIVPTPTSPAIAPPTETMAPPVRDPVPGKPTVTIRTRGAIIQTPTLGPIQPTRVSEAGTTVPGQIRPTLTIPGYVEPTAVITPPTTTTKKPRVSTPKPATPSTDSSTTTTRRPTKKPRTPRPVPRVTTKAPITRLETASPPTRIRTTTSGVPRGGEPNQRPELKNHIDRVDAWVGTYFEVKIPSDTFYDNEDTTTDKLKLTLKLREQQLVGEKSWVQFNSNSQLMYGLPDSSHVGKHEYFMHATDKGGLSAVDAFEIHVHKRPQGDKAPARFKARLAGDPAPVVNDIHKKIALVKKLAFAFGDRNCSSITLQNITRG
modifications: matriglycan O-glycosylation (full-length)
B3: α-dystroglycan lacking N-terminal domain (M-α-DGN KO) 317-653 (protein)
chain: TPVTAIGPPTTAIQEPPSRIVPTPTSPAIAPPTETMAPPVRDPVPGKPTVTIRTRGAIIQTPTLGPIQPTRVSEAGTTVPGQIRPTLTIPGYVEPTAVITPPTTTTKKPRVSTPKPATPSTDSSTTTTRRPTKKPRTPRPVPRVTTKAPITRLETASPPTRIRTTTSGVPRGGEPNQRPELKNHIDRVDAWVGTYFEVKIPSDTFYDNEDTTTDKLKLTLKLREQQLVGEKSWVQFNSNSQLMYGLPDSSHVGKHEYFMHATDKGGLSAVDAFEIHVHKRPQGDKAPARFKARLAGDPAPVVNDIHKKIALVKKLAFAFGDRNCSSITLQNITRGSI
modifications: short non-elongated matriglycan O-glycosylation

This assay has as its target laminin-111 (Mus musculus, UniProt P19137). Description: solid-phase binding assay.
One may read the Kd as the concentration at which binding is half-saturated. High values mean weaker binding, low ones tighter binding. B1 gave a Kd of 1.9 nM.
As for B2, the figure is 0.966 nM; as for B3, 2.32 nM.
